Source: patent publication US9371393B2, “Class I anti-CEA antibodies and uses thereof” (Immunomedics, Inc., priority 2009, dated 2016)

B1: MN-15: murine Class I anti-CEA MAb, IgG1 kappa, binds A1B1 domain of CEACAM5 and CEACAM6 (antibody, V domains shown)
VL: DIQLTQSPAIMSASPGEKVTMTCSASSRVSYIHWYQQKSGTSPKRWIYGTSTLASGVPARFSGSGSGTSYSLTISSMEAEDAATYYCQQWSYNPPTFGAGTKLELKR
VH: EVRLVESGGGLVQGPGSLRLSCAASGFALTDYYMSWVRQSPGKTLEWLGFIANKANGHTTDYSPSVKGRFTISRDNSQTILYLQMNTLRTEDSATYYCARDMGIRWNFDVWGQGTTVTVSS
B2: MN-15 Fab′: monovalent Fab′ fragment of murine MN-15 (antibody, V domains shown)
VL: B1 VL
VH: B1 VH

Columns and labels:
[1] = test system: MCF-7 adhesion to fibronectin; experiment: Adhesion to extracellular matrix proteins assay, MCF-7; type: cell-based, human
Method: (§1) Adhesion to extracellular matrix proteins assay—The assay was done using the CYTOMATRIX™ screening kit from CHEMICON® (Kit #ECM205, Temecula, Calif.). The kit contains 96-well plates with strips coated with fibronectin, vitronectin, laminin, collagen-I, or collagen-IV. Subconfluent cell cultures were used for these studies. Cells (1×10^6 cells/mol) were seeded onto coated substrate and incubated at 37° C. for 1 hour in a CO2 incubator in PBS containing Ca^2+/Mg^2+ (200 μL per well). Adherent cells were fixed and stained. The plate was washed to remove unadhered cells and stained with 100 μL per well of MTS (Cell Titer Aq 96, PROMEGA®, Madison, Wis.) for 5 minutes at room temperature. Excess stain was removed with three PBS washes. Solubilization buffer [100 μL of a 50:50 mixture of 0.1 mol/L NaH2PO4 (pH 4.5) and 50% ethanol] was added to each well. Relative attachment was determined using absorbance readings (A540 nm-A570 nm).

[2] = test system: CaPAN-1 adhesion to fibronectin; experiment: Adhesion to extracellular matrix proteins assay, CaPAN-1; type: cell-based, human
Method: as §1

[3] = test system: ZR75-30 binding to fibronectin; experiment: Adhesion to extracellular matrix proteins assay, ZR75-30; type: cell-based, human
Method: as §1

[4] = test system: BXPC3 binding to fibronectin; experiment: Adhesion to extracellular matrix proteins assay, BXPC3; type: cell-based, human
Method: as §1

[5] = test system: HT-29 cells adhesion to HUVEC; experiment: Endothelial cell adhesion assay, HT-29; type: cell-based, human
Method: Endothelial cell adhesion assay—Human umbilical vein endothelial cells (HUVEC; Cambrex, San Diego, Calif.) were grown in collagen-coated dishes in EGM Media in a humidified atmosphere with 5% CO2 at 37° C. At passages 2 to 5, cells were plated at a density of 4×10^4 cells per well in 96-well plates 24 hours before the assay. Interleukin-1β (IL-1β, 1 ng/mol) was added 4 hours before the assay. At the start of the study, the medium with the IL-1β was removed and fresh DMEM with 1% bovine serum albumin (BSA) added and incubated for 30 minutes. Fresh medium without antibodies or with 10 μg/mol of MN-15 Fab′, MN-3 Fab′, or Ag8 Fab′ was added. Tumor cells (1×10^6 cells/mol) prelabeled overnight with ^3H-thymidine (100 μL per well using 1.0 μCi/mL) were added to HUVEC cultures and incubated for 30 minutes at 37° C. with rotation in medium with 20% FBS. Samples were washed thrice with PBS to remove unattached cells. Attached cells were solubilized with 0.1 N NaOH and radioactivity was measured in a β scintillation counter. The cpm attached/total cpm added (attaching potential) was determined.

ZR75-30 cells = experiment: Collagen-based invasion assay, ZR75-30; type: cell-based, human; settings: 10% FBS chemoattractant, 72-hour incubation
Method: Collagen-based invasion assay—The assay was done using CHEMICON® Kit (#ECM551, MILLIPORE®, Billerica, Mass.). Tumor cells at 80% confluence and were serum-starved for 18 to 24 hours before the assay was used. Cells were harvested with 5 mol of 2 mmol/L EDTA/PBS per 100-mm dish and incubated at 37° C. for 5 to 15 minutes. Cells were collected into 10 to 20 mol of quenching medium (serum-free DMEM containing 5% BSA) to inactivate trypsin/EDTA from the harvesting buffer. Cells were pelleted, resuspended in quenching medium (1×10^6 cells/mol), and appropriate antibody Fabs were added to individual cell aliquots. Cell invasion potential was determined as follows. Baseline invasion and invasion in the presence of a chemoattractant (10% FBS) were measured after a 72-hour incubation period at 37° C. in a 5% CO2 incubator. The bottom side of the collagen-coated polycarbonate membrane insert of the invasion chamber was placed in 400 μL of cell stain for 20 minutes at room temperature and washed. The dye was extracted and transferred into a 96-well microtiter plate for colorimetric measurements (A560 nm).

[6] = test system: GW-39 human colonic carcinoma; experiment: GW-39 intrapulmonary micrometastasis model (GW-39iv), survival; type: in vivo, nude mice; settings: cells pretreated with Fab′ 10 μg/mol, 100 μg i.v. 1 day after implantation; untreated 42 days
Method: FIG. 7 illustrates an exemplary in vivo micrometastasis study. Top, immunohistochemistry of GW-39 tumor sections stained with a nonspecific antibody (left), MN-14 anti-CEACAM5 (middle), and MN-15 anti-CEACAM6 (right) and photographed at 100×. Bottom, survival of nude mice implanted with 30 μL of a 10% suspension of GW-39 human colonic cancer cells. Mice were implanted with cells that were […] for 30 minutes with MN-3-, MN-15-, or hMN-14-Fab′ (10 μg/mol). Mice also received a single 100 μg dose of the same Fab′ 1 day after cell implantation.
In vivo therapy studies—Female athymic nude mice (6 to 8 weeks old) were purchased from TACONIC® (Germantown, N.Y.). Therapy studies were done using our CEACAM5+/CEACAM6+GW-39 intrapulmonary micrometastasis model, GW-39iv (Sharkey et al., J Natl Cancer Inst 1991, 83:627-32; Blumenthal et al., Cancer Res 1992, 52:6036-44). The GW-39 human colonic carcinoma has been maintained as a serially transplanted signet-ring cell cancer line since 1966 (Goldenberg et al., Transplantation 1966, 4:760-4). […] Body weight was monitored weekly and animal survival recorded. Results were analyzed by the Kaplan-Meier estimated survival curves, and significance was determined with the log-rank comparison of survival curves. Median survival time for each treatment group also was determined. […]

Row | Molecule | decrease of adhesion to fibronectin [1] [%] | decrease of adhesion to fibronectin [2] [%] | effect on binding to fibronectin [3] | effect on binding to fibronectin [4] | decrease in adhesion [5] [%] | reduction in cell invasion (ZR75-30 cells) [%] | median survival time [6] [days]
1 | B1 | 29 | 47 | not affecting the binding | not affecting the binding | – | – | –
2 | B2 | – | – | – | – | 48 | 49 | > 77
